We go through three molecules from patent US20200181262A1 (published 2020).

Test [1] deals with T1, monomeric His-tagged human FcRn (hFcRn) (JTA) (human, UniProt P55899 24-290; P61769 21-119, limits assumed).
T1 construct: In-house soluble His-tagged FcRn; also called monomeric human FcRn produced in-house; not shown: His tag
The test can be described thus: SPR (Biacore 3000), mAb amine-coupled, His-tagged hFcRn injected, 1:1 Langmuir, pH 6.0. In general terms: Surface plasmon resonance follows binding to a sensor surface in real time, without labels.

The target in test [2] is T1, monomeric His-tagged human FcRn (hFcRn) …. The test can be described thus: SPR (Biacore 3000), mAb amine-coupled, His-tagged hFcRn injected, 1:1 Langmuir, pH 7.4.
Protocol: The coupling was performed by injecting 3 μg/ml of each protein into 10 mM sodium acetate, pH 4.5 (GE Healthcare), using the amine coupling kit (GE Healthcare). […] All SPR experiments were conducted at 25° C. with a flow rate of 40 μl/min. Binding data were zero-adjusted, and the reference cell value subtracted. The Langmuir 1:1 ligand binding model provided by the BIAevaluation software (version 4.1) was used to determine the binding kinetics. The closeness of the fit is described by the statistical value χ².
Test [3] has as its target T2, FcRn (analyte of the BIACORE studies of Tables 9-11, tables titled anti-human FcRn mAbs) (human, UniProt P55899 24-290; P61769 21-119).
T2 construct: also called analyte (FcRn)
Nature of the test: SPR, antibody captured on protein A, FcRn 50-0.02 nM, 1:1 model.
Protocol: For kinetic analysis, a 2-fold dilution range was selected from 50-0.02 nM FcRn. The association phase of FcRn analyte was monitored for 450 seconds, and dissociation was measured for 1500 seconds, at 40 μl/min. Fc1 was a reference channel and was subtracted from other flow cells to correct for non-specific binding. Kinetic values are based on a 1:1 binding model (Table 11).

In test [4] the target is T2, FcRn (analyte of the BIACORE studies of …). Nature of the test: SPR (BIACORE), antibody immobilized on CM5, FcRn injected, 1:1 Langmuir, pH 6.0.
Protocol: Antibodies were diluted into 10 mM NaAc, pH 4.5, and immobilized onto BIACORE® CM5 chips to RU levels of approximately 500-1000. Analysis was performed by injection of FcRn at concentrations of 12-800 nM in 1×PBS-P at pH 7.4 or pH 6.0.
Test [5] has the same target. Nature of the test: SPR (BIACORE), antibody captured on protein A CM5 chip, FcRn analyte.
Description: Antibodies were captured on a CM5 chip coated with protein A and analyte (FcRn) flowed over the surface.
In test [6] the target is T1, monomeric His-tagged human FcRn (hFcRn) …. Nature of the test: SPR (Biacore 3000), H3Vk2 amine-coupled, hFcRn (JTA) injected, 1:1 Langmuir, pH 7.4.
Protocol: (§1) All SPR experiments were conducted at 25° C. with a flow rate of 40 μl/min. Binding data were zero-adjusted, and the reference cell value subtracted. The Langmuir 1:1 ligand binding model provided by the BIAevaluation software (version 4.1) was used to determine the binding kinetics. The closeness of the fit is described by the statistical value χ2.
For test [7], the target named is human FcRn as expressed in cells (human whole blood; hFcRn transgenic mice) (human, UniProt P55899 24-365; P61769 21-119). The test can be described thus: cell-based or functional assay.
In test [8] the target is T3, cynomolgus FcRn (cFcRn) obtained from SINO Biological Inc (cynomolgus monkey, UniProt Q8SPV9 24-297; Q8SPW0 21-119).
T3 construct: also called pFcRn (SINO); pFeltn (SINO)
The test can be described thus: SPR (Biacore 3000), H3Vk2 amine-coupled, cynomolgus FcRn (SINO) injected, 1:1 Langmuir, pH 7.4.
Protocol: as §1

In test [9] the target is T1, monomeric His-tagged human FcRn (hFcRn) …. The test can be described thus: SPR (Biacore 3000), mAb amine-coupled, His-tagged hFcRn (JTA) injected, 1:1 Langmuir, pH 6.0.
Protocol: In a further study, surface plasmon resonance (SPR) was conducted using a Biacore 3000 instrument (GE Healthcare) with CM5 sensor chips coupled with antibodies (˜550 resonance units (RU)) using amine-coupling chemistry as described by the manufacturer. […] All SPR experiments were conducted at 25° C. with a flow rate of 40 μl/min. Binding data were zero-adjusted, and the reference cell value subtracted. The Langmuir 1:1 ligand binding model provided by the BIAevaluation software (version 4.1) was used to determine the binding kinetics. The closeness of the fit is described by the statistical value χ2.

Residue numbers refer to the chain shown, from its start. Values joined by “and” are separate entries in the source; they are usually repeats but may differ in a detail not shown here. Identical values can stand only once.

T2 sequence (P55899 24-290 limits assumed, chain 1 of 2): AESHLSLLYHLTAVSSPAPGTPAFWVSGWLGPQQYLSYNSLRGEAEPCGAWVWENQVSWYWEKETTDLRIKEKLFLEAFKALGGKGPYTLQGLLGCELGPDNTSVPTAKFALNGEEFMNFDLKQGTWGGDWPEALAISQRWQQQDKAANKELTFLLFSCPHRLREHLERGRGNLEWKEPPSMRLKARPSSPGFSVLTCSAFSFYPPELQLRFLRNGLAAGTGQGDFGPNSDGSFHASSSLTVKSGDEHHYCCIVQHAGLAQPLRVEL
T2 sequence (P61769 21-119 limits assumed, chain 2 of 2): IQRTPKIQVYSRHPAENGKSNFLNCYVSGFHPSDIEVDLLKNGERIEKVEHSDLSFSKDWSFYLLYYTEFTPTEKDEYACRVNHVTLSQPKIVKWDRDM
T1 sequence (P55899 24-290 limits assumed, chain 1 of 2): as the sequence (P55899 24-290 limits assumed, chain 1 of 2) above
T1 sequence (P61769 21-119 limits assumed, chain 2 of 2): as the sequence (P61769 21-119 limits assumed, chain 2 of 2) above
Sequence of human FcRn as expressed in cells (human whole blood; hFcRn transgenic mice) (P55899 24-365, chain 1 of 2): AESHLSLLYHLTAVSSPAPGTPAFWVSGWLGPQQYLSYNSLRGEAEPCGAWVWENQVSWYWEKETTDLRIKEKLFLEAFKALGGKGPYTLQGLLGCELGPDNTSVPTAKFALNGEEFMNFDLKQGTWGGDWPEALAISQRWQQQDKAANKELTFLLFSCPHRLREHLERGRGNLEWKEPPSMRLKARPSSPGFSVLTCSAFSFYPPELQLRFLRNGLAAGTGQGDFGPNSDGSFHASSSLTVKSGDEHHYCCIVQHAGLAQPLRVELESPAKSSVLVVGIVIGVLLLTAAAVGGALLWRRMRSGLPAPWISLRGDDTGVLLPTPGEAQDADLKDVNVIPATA
Sequence of human FcRn as expressed in cells (human whole blood; hFcRn transgenic mice) (P61769 21-119, chain 2 of 2): as the sequence (P61769 21-119 limits assumed, chain 2 of 2) above
T3 sequence (Q8SPV9 24-297 limits assumed, chain 1 of 2): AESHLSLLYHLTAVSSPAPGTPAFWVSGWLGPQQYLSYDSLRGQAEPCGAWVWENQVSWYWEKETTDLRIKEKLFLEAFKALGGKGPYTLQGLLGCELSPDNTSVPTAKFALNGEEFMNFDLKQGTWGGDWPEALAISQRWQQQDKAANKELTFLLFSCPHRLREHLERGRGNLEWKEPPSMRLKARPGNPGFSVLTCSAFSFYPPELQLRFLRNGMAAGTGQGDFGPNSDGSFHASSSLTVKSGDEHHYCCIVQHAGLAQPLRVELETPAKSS
T3 sequence (Q8SPW0 21-119 limits assumed, chain 2 of 2): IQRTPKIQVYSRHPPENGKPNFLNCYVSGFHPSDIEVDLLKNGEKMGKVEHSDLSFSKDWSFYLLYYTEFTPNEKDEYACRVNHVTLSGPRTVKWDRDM

B1: G9VH1_Vκ2 antibody (antibody, V domains shown)
VH: QVQLVQSGAELKKPGASVKLSCKASGYTFTSYGISWVKQATGQGLEWIGEIYPRSGNTYYNEKFKGRATLTADKSTSTAYMELRSLRSEDSAVYFCARSTTVSPPRVWGTGTTVTVSS
VL: DIQMTQSPSSLSASVGDRVTITCKASDHINNWLAWYQQKPGQAPRLLISGATSLETGVPSRFSGSGTGKDYTLTISSLQPEDFATYYCQQYWSTPYTFGGGTKVEIK
notes: also called G9Vκ2
As a reminder, the Kd is the constant that tells how readily two partners part at equilibrium. Low values mean a tighter complex, high ones a looser complex. The kon is a measure of how fast the partners come together. High values mean fast association, low ones slow association. For B1, the Kd in test [1] was 7.4 nM; in test [2] it was 4.9 nM; in test [3] it was 0.39 nM and 0.4 nM. For the same molecule, the association rate constant (kon) in [1] was determined as 85000 M⁻¹ s⁻¹; in [2], 61000 M⁻¹ s⁻¹; in test [3], 318000 M⁻¹ s⁻¹.

B2: VH1_G9/Vκ2_E8 IgG4 (antibody, V domains shown)
VH: B1 VH
VL: B1 VL with P80T, Q89H, W92Y
notes: bivalent IgG4, kappa; also called G9VH1_E8Vκ2; G9VH1E8Vκ2
Take B2: the figures for the Kd in test [4] and in test [5] were 0.6 nM and 0.84 nM, respectively.

B3: H3VH1_Vκ2 antibody (anti-FcRn mAb H3Vκ2) (antibody, V domains shown)
VH: B1 VH with S103R, R106G, V107I
VL: B1 VL
notes: also called H3Vk2; H3VK2
With B3, the dissociation constant Kd in test [6] turned out to be 4.6 nM; in [1], 3.8 nM; in test [2], 5.1 nM; in test [8], 11.9 nM; in [9], 3.8 nM. Further, the “plasma concentration of HuLys11 (human IgG1) in hFcRn transgenic mice after 20 mg/kg” value in [7] is 3 fold.
